Results: PMC10398670 (EMBO Reports, 2023)

What was measured:
MIRO‐1::His = molecular target: T1, MIRO‐1::His (C. elegans, UniProt Q94263 1-601); test: cross-linking
T1 sequence (looked up): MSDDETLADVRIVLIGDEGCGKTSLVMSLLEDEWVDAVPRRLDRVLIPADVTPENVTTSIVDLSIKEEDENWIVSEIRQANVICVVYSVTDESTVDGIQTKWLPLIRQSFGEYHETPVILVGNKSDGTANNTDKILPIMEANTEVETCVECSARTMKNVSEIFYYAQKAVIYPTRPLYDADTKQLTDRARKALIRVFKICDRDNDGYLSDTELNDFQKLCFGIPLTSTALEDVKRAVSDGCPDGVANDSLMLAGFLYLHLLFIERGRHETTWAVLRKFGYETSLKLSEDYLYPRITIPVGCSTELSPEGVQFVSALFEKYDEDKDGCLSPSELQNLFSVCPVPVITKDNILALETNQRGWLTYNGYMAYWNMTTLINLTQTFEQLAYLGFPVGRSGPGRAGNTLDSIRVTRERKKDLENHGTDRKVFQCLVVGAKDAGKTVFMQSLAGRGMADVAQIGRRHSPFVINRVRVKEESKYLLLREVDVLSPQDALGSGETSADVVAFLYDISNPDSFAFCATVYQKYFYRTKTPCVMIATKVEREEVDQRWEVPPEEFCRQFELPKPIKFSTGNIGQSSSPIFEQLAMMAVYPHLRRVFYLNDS

GST::MIRO‐1 = molecular target: T2, GST::MIRO‐1 (C. elegans, UniProt Q94263 1-601); test: pull-down
T2 sequence (looked up): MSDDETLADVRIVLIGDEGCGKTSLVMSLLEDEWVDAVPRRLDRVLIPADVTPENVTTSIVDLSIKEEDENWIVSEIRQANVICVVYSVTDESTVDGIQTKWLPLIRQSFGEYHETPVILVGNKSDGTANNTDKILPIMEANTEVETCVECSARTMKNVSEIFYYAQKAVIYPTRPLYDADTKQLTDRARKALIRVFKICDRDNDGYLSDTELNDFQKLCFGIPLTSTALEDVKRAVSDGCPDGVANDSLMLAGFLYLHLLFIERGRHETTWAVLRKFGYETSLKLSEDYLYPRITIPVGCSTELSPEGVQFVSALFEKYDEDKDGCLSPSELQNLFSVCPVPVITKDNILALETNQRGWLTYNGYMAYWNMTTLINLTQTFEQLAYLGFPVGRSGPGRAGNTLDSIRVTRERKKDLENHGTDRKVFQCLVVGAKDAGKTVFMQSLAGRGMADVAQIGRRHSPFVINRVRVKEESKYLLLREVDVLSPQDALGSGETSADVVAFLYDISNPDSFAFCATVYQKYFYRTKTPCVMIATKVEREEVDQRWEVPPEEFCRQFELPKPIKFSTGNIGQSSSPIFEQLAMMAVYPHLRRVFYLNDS

- binding result (MIRO‐1::His): binds
- binding result (GST::MIRO‐1): binds
B1: VDAC‐1::His (natural protein, C. elegans, UniProt Q21752 1-283, looked up)
chain: MAPPTFADLGKSAKDLFNKGYNFGFLKIDSTTRAGDNKEVEFKSAASHNIGSGKLGGNLDVKYKIPQYGITLTEKWNTENQLGTVIEVNEQFGRGLKVTLDSLYAPHAGKRSGKVKLDWALPTARVTADVGVTSAPVINAAGVFSRDGWLIGAAATFDSSSNKLAATSLAFGHSTPQYTLHSFVINSTDFGASLYHKVASNVEVGTQLGWKVGGNGADYALATKYAPSRDLTVRAKVNSSSQVAVAATHSLSPALKLTLSTQFNLAANDAHKFGLGLEFDPSN
